Consider 19 molecules from patent US20230137032A1 (GlaxoSmithKline, published 2023).

Experiment [1] concerns the target T1, recombinant human BCMA, in house material (human, UniProt Q02223 4-53, limits assumed).
T1 construct: also called Human in house BCMA; In house human BCMA
Description: ProteOn SPR run 1, antibody captured on Protein A, 25C.

The target of experiment [2] is T2, recombinant cyno BCMA, in house material (cyno, UniProt A0A2K5UD97 4-52).
T2 construct: also called Cyno in house BCMA
T2 sequence (A0A2K5UD97 entry or part of it): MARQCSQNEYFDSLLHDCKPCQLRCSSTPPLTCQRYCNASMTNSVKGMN
The description is as above.

The term Kd denotes a measure of binding affinity in units of concentration.

T1 sequence (Q02223 4-53 limits assumed): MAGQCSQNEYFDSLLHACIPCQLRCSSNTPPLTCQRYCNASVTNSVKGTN

B1: CA8 humanised J0M0 (antibody, human IgG1, kappa, V domains shown)
VH: QVQLVQSGAEVKKPGSSVKVSCKASGGTFSNYWMHWVRQAPGQGLEWMGATYRGHSDTYYNQKFKGRVTITADKSTSTAYMELSSLRSEDTAVYYCARGAIYNGYDVLDNWGQGTLVTVSS
VL: DIQMTQSPSSLSASVGDRVTITCSASQDISNYLNWYQQKPGKAPKLLIYYTSNLHSGVPSRFSGSGSGTDFTLTISSLQPEDFATYYCQQYRKLPWTFGQGTKLEIKR
notes: Humanised CA8, heavy chain J0 with light chain M0, human IgG1 kappa; also called CA8 J0M0
For B1, the Kd in experiment [1] was 0.435 nM; in experiment [2] it was 0.648 nM.

B2: S307118G03 humanised H3L1 (antibody, human IgG1, kappa, V domains shown)
VH: QVQLVQSGAEVKKPGSSVKVSCKASGYTFTDYYMKWVRQAPGQGLEWIGEIYPNNGGITYNQKFKGRATLTVDKSTSTAYMELSSLRSEDTAVYYCANGYEFVYWGQGTLVTVSS
VL: DIQMTQSPSSLSASVGDRVTITCSASQGISNYLNWYQQKPGKAPKLLIYYTSSLHSGVPSRFSGSGSGTDYTLTISSLQPEDFATYYCQQYSKLPWTFGQGTKLEIKR
notes: Humanised, human IgG1 kappa
Turning to B2, the Kd in experiment [1] is 4.86 nM. In experiment [2], the binding result is “no binding”.

B3: CA8 humanised J3M0 (antibody, human IgG1, kappa, V domains shown)
VH: QVQLVQSGAEVKKPGSSVKVSCKGSGYTFTNYWMHWVRQAPGQGLEWMGATYRGHSDTYYNQKFKGRVTITADTSTSTAYMELSSLRSEDTAVYYCTRGAIYNGYDVLDNWGQGTLVTVSS
VL: DIQMTQSPSSLSASVGDRVTITCSASQDISNYLNWYQQKPGKAPKLLIYYTSNLHSGVPSRFSGSGSGTDFTLTISSLQPEDFATYYCQQYRKLPWTFGQGTKLEIKR
notes: Humanised CA8, heavy chain J3 with light chain M0, human IgG1 kappa; also called CA8 J3M0
Turning to B3, the figures for the dissociation constant (Kd) in experiment [1] and in experiment [2] were 1.37 nM and 0.526 nM, respectively.

B4: CA8 humanised J1M0 (antibody, human IgG1, kappa, V domains shown)
VH: QVQLVQSGAEVKKPGSSVKVSCKASGYTFTNYWMHWVRQAPGQGLEWMGATYRGHSDTYYNQKFKGRVTITADKSTSTAYMELSSLRSEDTAVYYCARGAIYNGYDVLDNWGQGTLVTVSS
VL: DIQMTQSPSSLSASVGDRVTITCSASQDISNYLNWYQQKPGKAPKLLIYYTSNLHSGVPSRFSGSGSGTDFTLTISSLQPEDFATYYCQQYRKLPWTFGQGTKLEIKR
notes: Humanised CA8, heavy chain J1 with light chain M0, human IgG1 kappa; also called CA8 J1M0
With B4, the Kd in experiment [1] was 2.82 nM; in experiment [2] it was 0.849 nM.

B5: CA8 humanised J1M2 (antibody, human IgG1, kappa, V domains shown)
VH: QVQLVQSGAEVKKPGSSVKVSCKASGYTFTNYWMHWVRQAPGQGLEWMGATYRGHSDTYYNQKFKGRVTITADKSTSTAYMELSSLRSEDTAVYYCARGAIYNGYDVLDNWGQGTLVTVSS
VL: DIQLTQSPSSLSASVGDRVTITCSASQDISNYLNWYQQKPGKAPELVIYYTSNLHSGVPSRFSGSGSGTDYTLTISSLQPEDFATYYCQQYRKLPWTFGQGTKLEIKR
notes: Humanised CA8, heavy chain J1 with light chain M2, human IgG1 kappa; also called CA8 J1M2
As for B5, the Kd was 1.14 nM in experiment [1] and 0.303 nM in experiment [2].

B6: CA8 humanised J2M1 (antibody, human IgG1, kappa, V domains shown)
VH: QVQLVQSGAEVKKPGSSVKVSCKASGYTFTNYWMHWVRQAPGQGLEWMGATYRGHSDTYYNQKFKGRVTITADKSTSTAYMELSSLRSEDTAVYYCTRGAIYNGYDVLDNWGQGTLVTVSS
VL: DIQMTQSPSSLSASVGDRVTITCSASQDISNYLNWYQQKPGKAPKLLIYYTSNLHSGVPSRFSGSGSGTDYTLTISSLQPEDFATYYCQQYRKLPWTFGQGTKLEIKR
notes: Humanised CA8, heavy chain J2 with light chain M1, human IgG1 kappa; also called CA8 J2M1
For B6, the figures for the Kd in experiment [1] and in experiment [2] were 0.842 nM and 0.218 nM, respectively.

B7: CA8 humanised J0M2 (antibody, human IgG1, kappa, V domains shown)
VH: QVQLVQSGAEVKKPGSSVKVSCKASGGTFSNYWMHWVRQAPGQGLEWMGATYRGHSDTYYNQKFKGRVTITADKSTSTAYMELSSLRSEDTAVYYCARGAIYNGYDVLDNWGQGTLVTVSS
VL: DIQLTQSPSSLSASVGDRVTITCSASQDISNYLNWYQQKPGKAPELVIYYTSNLHSGVPSRFSGSGSGTDYTLTISSLQPEDFATYYCQQYRKLPWTFGQGTKLEIKR
notes: Humanised CA8, heavy chain J0 with light chain M2, human IgG1 kappa; also called CA8 J0M2
For the molecule B7, the Kd in experiment [1] was determined as 0.31 nM; in experiment [2], 0.563 nM.

B8: CA8 humanised J5M0 (antibody, human IgG1, kappa, V domains shown)
VH: QVQLVQSGAEVKKPGSSVKVSCKGSGYTFTNYWMHWVRQAPGQGLEWMGATYRGHSDTYYNQKFKGRVTITADTSTSTAYMELSSLRSEDTAVYYCTRGAIYDGYDVLDNWGQGTLVTVSS
VL: DIQMTQSPSSLSASVGDRVTITCSASQDISNYLNWYQQKPGKAPKLLIYYTSNLHSGVPSRFSGSGSGTDFTLTISSLQPEDFATYYCQQYRKLPWTFGQGTKLEIKR
notes: Humanised CA8, heavy chain J5 with light chain M0, human IgG1 kappa; also called CA8 J5M0
B8: the Kd in experiment [1] came to 0.087 nM; in experiment [2], 0.025 nM.

B9: CA8 humanised J4M2 (antibody, human IgG1, kappa, V domains shown)
VH: QVQLVQSGAEVKKPGSSVKVSCKGSGYTFTNYWMHWVRQAPGQGLEWIGATYRGHSDTYYNQKFKGRATLTADTSTSTAYMELSSLRSEDTAVYYCTRGAIYNGYDVLDNWGQGTLVTVSS
VL: DIQLTQSPSSLSASVGDRVTITCSASQDISNYLNWYQQKPGKAPELVIYYTSNLHSGVPSRFSGSGSGTDYTLTISSLQPEDFATYYCQQYRKLPWTFGQGTKLEIKR
notes: Humanised CA8, heavy chain J4 with light chain M2, human IgG1 kappa; also called CA8 J4M2
Turning to B9, the Kd in experiment [1] was determined as 0.281 nM; in experiment [2] it was 0.179 nM.

B10: CA8 humanised J4M1 (antibody, human IgG1, kappa, V domains shown)
VH: QVQLVQSGAEVKKPGSSVKVSCKGSGYTFTNYWMHWVRQAPGQGLEWIGATYRGHSDTYYNQKFKGRATLTADTSTSTAYMELSSLRSEDTAVYYCTRGAIYNGYDVLDNWGQGTLVTVSS
VL: DIQMTQSPSSLSASVGDRVTITCSASQDISNYLNWYQQKPGKAPKLLIYYTSNLHSGVPSRFSGSGSGTDYTLTISSLQPEDFATYYCQQYRKLPWTFGQGTKLEIKR
notes: Humanised CA8, heavy chain J4 with light chain M1, human IgG1 kappa; also called CA8 J4M1
B10: the Kd in experiment [1] worked out at 0.278 nM; in experiment [2], 0.203 nM.

B11: CA8 humanised J0M1 (antibody, human IgG1, kappa, V domains shown)
VH: QVQLVQSGAEVKKPGSSVKVSCKASGGTFSNYWMHWVRQAPGQGLEWMGATYRGHSDTYYNQKFKGRVTITADKSTSTAYMELSSLRSEDTAVYYCARGAIYNGYDVLDNWGQGTLVTVSS
VL: DIQMTQSPSSLSASVGDRVTITCSASQDISNYLNWYQQKPGKAPKLLIYYTSNLHSGVPSRFSGSGSGTDYTLTISSLQPEDFATYYCQQYRKLPWTFGQGTKLEIKR
notes: Humanised CA8, heavy chain J0 with light chain M1, human IgG1 kappa; also called CA8 J0M1
B11: the Kd amounted to 0.373 nM in experiment [1] and 0.503 nM in experiment [2].

B12: CA8 humanised J5M2 (antibody, human IgG1, kappa, V domains shown)
VH: QVQLVQSGAEVKKPGSSVKVSCKGSGYTFTNYWMHWVRQAPGQGLEWMGATYRGHSDTYYNQKFKGRVTITADTSTSTAYMELSSLRSEDTAVYYCTRGAIYDGYDVLDNWGQGTLVTVSS
VL: DIQLTQSPSSLSASVGDRVTITCSASQDISNYLNWYQQKPGKAPELVIYYTSNLHSGVPSRFSGSGSGTDYTLTISSLQPEDFATYYCQQYRKLPWTFGQGTKLEIKR
notes: Humanised CA8, heavy chain J5 with light chain M2, human IgG1 kappa; also called CA8 J5M2
In the case of B12, the Kd turned out to be 0.12 nM in experiment [1] and 0.109 nM in experiment [2].

B13: CA8 humanised J1M1 (antibody, human IgG1, kappa, V domains shown)
VH: QVQLVQSGAEVKKPGSSVKVSCKASGYTFTNYWMHWVRQAPGQGLEWMGATYRGHSDTYYNQKFKGRVTITADKSTSTAYMELSSLRSEDTAVYYCARGAIYNGYDVLDNWGQGTLVTVSS
VL: DIQMTQSPSSLSASVGDRVTITCSASQDISNYLNWYQQKPGKAPKLLIYYTSNLHSGVPSRFSGSGSGTDYTLTISSLQPEDFATYYCQQYRKLPWTFGQGTKLEIKR
notes: Humanised CA8, heavy chain J1 with light chain M1, human IgG1 kappa; also called CA8 J1M1
As to B13, the Kd was 1.51 nM in experiment [1] and 0.442 nM in experiment [2].

B14: CA8 humanised J5M1 (antibody, human IgG1, kappa, V domains shown)
VH: QVQLVQSGAEVKKPGSSVKVSCKGSGYTFTNYWMHWVRQAPGQGLEWMGATYRGHSDTYYNQKFKGRVTITADTSTSTAYMELSSLRSEDTAVYYCTRGAIYDGYDVLDNWGQGTLVTVSS
VL: DIQMTQSPSSLSASVGDRVTITCSASQDISNYLNWYQQKPGKAPKLLIYYTSNLHSGVPSRFSGSGSGTDYTLTISSLQPEDFATYYCQQYRKLPWTFGQGTKLEIKR
notes: Humanised CA8, heavy chain J5 with light chain M1, human IgG1 kappa; also called CA8 J5M1
With B14, the Kd is 0.145 nM in experiment [1] and 0.112 nM in experiment [2].

B15: CA8 humanised J2M2 (antibody, human IgG1, kappa, V domains shown)
VH: QVQLVQSGAEVKKPGSSVKVSCKASGYTFTNYWMHWVRQAPGQGLEWMGATYRGHSDTYYNQKFKGRVTITADKSTSTAYMELSSLRSEDTAVYYCTRGAIYNGYDVLDNWGQGTLVTVSS
VL: DIQLTQSPSSLSASVGDRVTITCSASQDISNYLNWYQQKPGKAPELVIYYTSNLHSGVPSRFSGSGSGTDYTLTISSLQPEDFATYYCQQYRKLPWTFGQGTKLEIKR
notes: Humanised CA8, heavy chain J2 with light chain M2, human IgG1 kappa; also called CA8 J2M2
B15: the Kd came out at 0.482 nM in experiment [1] and 0.106 nM in experiment [2].

B16: CA8 humanised J4M0 (antibody, human IgG1, kappa, V domains shown)
VH: QVQLVQSGAEVKKPGSSVKVSCKGSGYTFTNYWMHWVRQAPGQGLEWIGATYRGHSDTYYNQKFKGRATLTADTSTSTAYMELSSLRSEDTAVYYCTRGAIYNGYDVLDNWGQGTLVTVSS
VL: DIQMTQSPSSLSASVGDRVTITCSASQDISNYLNWYQQKPGKAPKLLIYYTSNLHSGVPSRFSGSGSGTDFTLTISSLQPEDFATYYCQQYRKLPWTFGQGTKLEIKR
notes: Humanised CA8, heavy chain J4 with light chain M0, human IgG1 kappa; also called CA8 J4M0
As to B16, the Kd in experiment [1] stood at 0.906 nM; in experiment [2], 0.866 nM.

B17: CA8 humanised J3M2 (antibody, human IgG1, kappa, V domains shown)
VH: QVQLVQSGAEVKKPGSSVKVSCKGSGYTFTNYWMHWVRQAPGQGLEWMGATYRGHSDTYYNQKFKGRVTITADTSTSTAYMELSSLRSEDTAVYYCTRGAIYNGYDVLDNWGQGTLVTVSS
VL: DIQLTQSPSSLSASVGDRVTITCSASQDISNYLNWYQQKPGKAPELVIYYTSNLHSGVPSRFSGSGSGTDYTLTISSLQPEDFATYYCQQYRKLPWTFGQGTKLEIKR
notes: Humanised CA8, heavy chain J3 with light chain M2, human IgG1 kappa; also called CA8 J3M2
On to B17, for which the Kd is 0.362 nM in experiment [1] and 0.159 nM in experiment [2].

B18: CA8 humanised J3M1 (antibody, human IgG1, kappa, V domains shown)
VH: QVQLVQSGAEVKKPGSSVKVSCKGSGYTFTNYWMHWVRQAPGQGLEWMGATYRGHSDTYYNQKFKGRVTITADTSTSTAYMELSSLRSEDTAVYYCTRGAIYNGYDVLDNWGQGTLVTVSS
VL: DIQMTQSPSSLSASVGDRVTITCSASQDISNYLNWYQQKPGKAPKLLIYYTSNLHSGVPSRFSGSGSGTDYTLTISSLQPEDFATYYCQQYRKLPWTFGQGTKLEIKR
notes: Humanised CA8, heavy chain J3 with light chain M1, human IgG1 kappa; also called CA8 J3M1
B18: the Kd amounted to 0.438 nM in experiment [1] and 0.196 nM in experiment [2].

B19: CA8 humanised J2M0 (antibody, human IgG1, kappa, V domains shown)
VH: QVQLVQSGAEVKKPGSSVKVSCKASGYTFTNYWMHWVRQAPGQGLEWMGATYRGHSDTYYNQKFKGRVTITADKSTSTAYMELSSLRSEDTAVYYCTRGAIYNGYDVLDNWGQGTLVTVSS
VL: DIQMTQSPSSLSASVGDRVTITCSASQDISNYLNWYQQKPGKAPKLLIYYTSNLHSGVPSRFSGSGSGTDFTLTISSLQPEDFATYYCQQYRKLPWTFGQGTKLEIKR
notes: Humanised CA8, heavy chain J2 with light chain M0, human IgG1 kappa; also called CA8 J2M0
For the molecule B19, the values for the Kd in experiment [1] and in experiment [2] were 1.94 nM and 0.538 nM, respectively.
